What all share (assay): co-IP (IP: FLAG, IB: myc), blot quantification
Assay [1] has as its target full-length RLIM protein (wild type; mapping and mutation co-IPs) (UniProt Q9NVW2). The settings on record: ZC4H2-myc + RLIM-FLAG, MG132 +; parent: 1.00.
The target of assay [2] is T1, ZC4H2 (wild type; mapping and mutation co-IPs), Q9NQZ6.
T1 chain: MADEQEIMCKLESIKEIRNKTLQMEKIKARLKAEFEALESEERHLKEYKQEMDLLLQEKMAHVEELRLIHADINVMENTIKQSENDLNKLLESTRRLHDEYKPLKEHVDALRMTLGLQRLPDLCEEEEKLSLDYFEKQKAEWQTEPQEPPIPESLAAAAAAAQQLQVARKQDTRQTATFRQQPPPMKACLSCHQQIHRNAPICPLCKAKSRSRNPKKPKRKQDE
The settings on record: chain shown with the change; hRLIM-myc + ZC4H2-FLAG, MG132 +, HEK293 cells; parent: 1.00.

For assay [3], the target named is T2, full-length RLIM protein (wild type; mapping and mutation co-IPs), Q9NVW2.
T2 chain: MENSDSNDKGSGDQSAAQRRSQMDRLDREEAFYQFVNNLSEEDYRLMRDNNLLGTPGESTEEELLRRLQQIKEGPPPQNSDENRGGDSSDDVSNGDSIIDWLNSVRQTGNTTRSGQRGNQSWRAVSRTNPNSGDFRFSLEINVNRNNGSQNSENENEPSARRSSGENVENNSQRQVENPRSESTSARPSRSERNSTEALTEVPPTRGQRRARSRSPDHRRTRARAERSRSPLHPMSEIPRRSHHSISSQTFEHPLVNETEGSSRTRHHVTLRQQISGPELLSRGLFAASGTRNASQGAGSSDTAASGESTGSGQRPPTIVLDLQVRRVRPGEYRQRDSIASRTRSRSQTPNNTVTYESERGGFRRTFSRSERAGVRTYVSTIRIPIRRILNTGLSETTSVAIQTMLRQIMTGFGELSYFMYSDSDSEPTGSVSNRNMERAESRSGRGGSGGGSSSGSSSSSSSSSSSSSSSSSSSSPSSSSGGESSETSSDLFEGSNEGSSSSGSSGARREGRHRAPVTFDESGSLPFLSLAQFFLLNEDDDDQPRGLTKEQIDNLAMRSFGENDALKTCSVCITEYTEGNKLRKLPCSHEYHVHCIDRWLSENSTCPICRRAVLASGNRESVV
The settings on record: chain shown with the change; ZC4H2-myc + RLIM-FLAG, MG132 +; parent: 1.00.

Where a chain is given by its changes, count along the chain named. Numbers in names are those of the source.

For the molecule “ZC4H2 (wild type; mapping and mutation co-IPs) (from UniProt Q9NQZ6) A201S”, the ratio to parent in assay [1] stood at 0.13.

B1: full-length RLIM protein (wild type; mapping and mutation co-IPs), Q9NVW2 R599C (protein)
chain: T2 chain with R599C
For the molecule B1, the ratio to parent in assay [2] came out at 0.65.

B2: full-length RLIM protein (wild type; mapping and mutation co-IPs), Q9NVW2 Y356C (protein)
chain: T2 chain with Y356C
For B2, the ratio to parent in assay [2] stood at 0.91.

B3: full-length RLIM protein (wild type; mapping and mutation co-IPs), Q9NVW2 P587R (protein)
chain: T2 chain with P587R
Consider B3, for which, in assay [2], the ratio to parent came out at 0.72.

B4: full-length RLIM protein (wild type; mapping and mutation co-IPs), Q9NVW2 D598N (protein)
chain: T2 chain with D598N
As to B4, the ratio to parent in assay [2] worked out at 0.23.

B5: full-length RLIM protein (wild type; mapping and mutation co-IPs), Q9NVW2 R611C (protein)
chain: T2 chain with R611C
For B5, the ratio to parent in assay [2] stood at 0.17.

B6: full-length RLIM protein (wild type; mapping and mutation co-IPs), Q9NVW2 P77L (protein)
chain: T2 chain with P77L
For the molecule B6, the ratio to parent in assay [2] came out at 0.95.

B7: full-length RLIM protein (wild type; mapping and mutation co-IPs), Q9NVW2 R387C (protein)
chain: T2 chain with R387C
Turning to B7, the ratio to parent in assay [2] came to 0.18.

B8: full-length RLIM protein (wild type; mapping and mutation co-IPs), Q9NVW2 R365C (protein)
chain: T2 chain with R365C
Take B8: the ratio to parent in assay [2] came to 1.02.

B9: ZC4H2 (wild type; mapping and mutation co-IPs), Q9NQZ6 A200V (protein)
chain: T1 chain with A200V
As for B9, the ratio to parent in assay [3] was found to be 0.18.

B10: ZC4H2 (wild type; mapping and mutation co-IPs), Q9NQZ6 V63L (protein)
chain: T1 chain with V63L
For B10, in assay [3], the ratio to parent is 1.2.

B11: ZC4H2 (wild type; mapping and mutation co-IPs), Q9NQZ6 R213W (protein)
chain: T1 chain with R213W
For B11, the ratio to parent in assay [3] came to 0.19.

B12: ZC4H2 (wild type; mapping and mutation co-IPs), Q9NQZ6 R198Q (protein)
chain: T1 chain with R198Q
For the molecule B12, in assay [3], the ratio to parent was 0.15.

Source of the values: publication PMC8982406.
